Source: doi:10.1101/2021.01.13.426575

Molecular target: DPP9, short isoform (DPP9S), co-expressed with CARD8 for cryo-EM (human), Q86TI2
Experiment: cryo-EM structure
Conditions: remark: other sources report otherwise

B1: DPP9, short isoform (DPP9S), co-expressed with CARD8 for cryo-EM, Q86TI2-1 1-863 (enzyme)
chain: MATTGTPTADRGDAAATDDPAARFQVQKHSWDGLRSIIHGSRKYSGLIVNKAPHDFQFVQKTDESGPHSHRLYYLGMPYGSRENSLLYSEIPKKVRKEALLLLSWKQMLDHFQATPHHGVYSREEELLRERKRLGVFGITSYDFHSESGLFLFQASNSLFHCRDGGKNGFMVSPMKPLEIKTQCSGPRMDPKICPADPAFFSFINNSDLWVANIETGEERRLTFCHQGLSNVLDDPKSAGVATFVIQEEFDRFTGYWWCPTASWEGSEGLKTLRILYEEVDESEVEVIHVPSPALEERKTDSYRYPRTGSKNPKIALKLAEFQTDSQGKIVSTQEKELVQPFSSLFPKVEYIARAGWTRDGKYAWAMFLDRPQQWLQLVLLPPALFIPSTENEEQRLASARAVPRNVQPYVVYEEVTNVWINVHDIFYPFPQSEGEDELCFLRANECKTGFCHLYKVTAVLKSQGYDWSEPFSPGEDEFKCPIKEEIALTSGEWEVLARHGSKIWVNEETKLVYFQGTKDTPLEHHLYVVSYEAAGEIVRLTTPGFSHSCSMSQNFDMFVSHYSSVSTPPCVHVYKLSGPDDDPLHKQPRFWASMMEAASCPPDYVPPEIFHFHTRSDVRLYGMIYKPHALQPGKKHPTVLFVYGGPQVQLVNNSFKGIKYLRLNTLASLGYAVVVIDGRGSCQRGLRFEGALKNQMGQVEIEDQVEGLQFVAEKYGFIDLSRVAIHGWSYGGFLSLMGLIHKPQVFKVAIAGAPVTVWMAYDTGYTERYMDVPENNQHGYEAGSVALHVEKLPNEPNRLLILHGFLDENVHFFHTNFLVSQLIRAGKPYQLQIYPNERHSIRCPESGEHYEVTLLHFLQEYL
stoichiometry N: 2
